test: soluble on expression in E. coli; label from the status in PepcDB or PDB records

Sequence | soluble on expression in E. coli
MAKKIEKNIITGLDIGTSKIIALIGEVTSDGTIEIIGIGRHPSRGLKRGVVVDIETTVNSIQRAVQEAELMAGCEVRTVYAGIAGSHIRSLNSHGIVAIRDQEVSQADVERVIDAAKAVAIPADQ | not soluble
MAKKTSSKGKLPPGPTPLPFIGNYLQLNTEQMYNSLMKISERYGPVFTIHLGPRRVVVLCGHDAVKEALVDQAEEFSGRGEQATFDWLFKGYGVAFSNGERAKQLRRFSIATLRGFGVGKRGIEERIQEEAGFLIDALRGTHGANIDPTFFLSRTVSNVISSIVFGDRFDYEDKEFLSLLRMMLGSFQFTATSTGQLYEMFSSVMKHLPGPQQQAFKELQGLEDFIAKKVEHNQRTLDPNSPRDFIDSFLIRMQEEEKNPNTEFYLKNLVMTTLNLFFAGTETVSTTLRYGFLLLMKHPEVEAKVHEEIDRVIGKNRQPKFEDRAKMPYTEAVIHEIQRFGDMLPMGLAHRVNKDTKFRDFFLPKGTEVFPMLGSVLRDPRFFSNPRDFNPQHFLDKKGQFKKSDAFVPFSIGKRYCFGEGLARMELFLFFTTIMQNFRFKSPQSPKDIDVSPKHVGFATIPRNYTMSFLPRHHHH | soluble
MAKKVFIGATGQNCGKTTMSVSLMHLARQKYQRVGFIKPIGPKIEMYNGLTVDMDAILMARTFGLEEDLALMNPVPLPKNFTRDYLSGKFDCHTLKKKIVEAFEILDQSYDFLIIEGAGHCGVGSVIGLSNACVAHMLGAPVIVVTDSGIGSAIDAVHLNLALYEKEEADVRMVIVNKLRSDKRDSILGFLRRGFPGRSLQVTGGFNYSPVLANPTLSHIGKLLNLPVHGDADGHSRIIHHIHLGAASSQRVVDALEDATLLVLTSSRDELIVTLSSLYHIPSYRDKIAGLVIAGHMPVSEITQQILDDSMIPYIRVHDSTARVFTTLMEDVSKITAEDQEKLNWIRANAENEIDFEAIDALLLEHHHHHH | not soluble
MAKKVKVITDPEVIKVMLEDTRRKILKLLRNKEMTISQLSEILGKTPQTIYHHIEKLKEAGLVEVKRTEMKGNLVEKYYGRTADVFYINLYLGDEELRYIARSRLKTKIDIFKRLGYQFEENELLNIMDRMSQKEFDATVRISKYIEEKEDALKDFSNEDIIHAIEWLSTAELARDEEYLELLKRLGSILKR | soluble
MAKRVADAQIQRETYDSNESDDDVTPSTKVASSAVMNRRKIAMPKRRMAFK | soluble
MAKSLLRSGNLDDYQAVGGGGQAVFESALQIRETLRLRKQQAMVDCLAIPQLNDNGDRVDWYSPIEGQAIAWKAADEETRSRALRYLASTFESAAALSRKSLQSGKTALQLFGSLLEKATQFPGENHVFLVNGKPVITFWGFVNLNENTRDDVLDCLRVTEAIPDIPLVEPEPEEKPLVEAAFSQADEPLLTSVIEPPKMPEEPAAPPVIVSEPKPAAPIPVAEAKRARRLPLWSLPVAAVVIAAVATPFFWPSSSVDGASPVRAAPVATAKTDVTPLPELTAHLPLHRAEVTPAPKAAPLPEAPVIIAAIPKDALVMDNTQMKLGTTRFLNGSWRISVDVKDPITGKPPSLRYQIQNNKGIARVVHGDNVVCRAEIFSGLHQTGELMIKSRGNARCTDGSRYPMPEITCKAGVNDVATCTARYGDHAAIPLTFKKIGA | not soluble
MAKTKDKSIFVSSVDSDSDIEEIIMPPKPPVEVIQLDDSDDECQDICKPIYNKKVHKDPIVRVSYRQRIPESYFPGISTSLINVQREHNNRSKYDTWGSNSCSEPRISISNIERLEKPSYHEARRVPVFERLERSREISNGRNNQNPIRFNHKFVPPINRQTPLFNNQQLLVNVPFNEHHPTFLEPRPFYRSNVNEYNAGGLNRGSFRKMGRLNMEIVRDNDDFEEHFLAPNFPAKSASIDRRVDDSLSSNSYLRSGMIMASSERLEDPRFSGRLPVFARQINNQEINNDNFYQNSICYNHNNYPSNLESRVSFPFEARHHDADGLNRGRYQVMEHVNMGIMRNSEDFEDYDITQTDQDNHFYNDKDSGKHHRHRHRSKNNKKHKKHYDRNESGNSSECREEDDYEISNPSEKRHERKKRQRSSHRKESACVDEDNYILDEDRFYQQESDEYHNSLEMEREYEHGMDVGVKKEHSYKCDDIARNARKRARLTDDDMARREELFKEWSYSKEIVDGVTQLFGGPPRESERHQKKQKELVFEADRTAMHALSIRSGALVKARLLEIHYATGCHLIFLEEVKRGGYTYVELKGDPEHIKNAQKMIDDMVIDEHYIHDGRESIVYFYNAPHELRNTRGFDLNCRSIEKYCGIIIEKMREVFGIGGYVSTAPLKLTGSVNSIHMARETMQSKTKRFLDEEKFKETVEHCTPISFYRKIIGRCGENLKTIEKVTRTAIVFKRSFDNNEACFSIRGRTDNIKQAIEKIEEITHENQPADDDPGIFQVRVPENMVARLIGRHGVEINRIRSESKAKCYLNAIRGNLDDKFMVCSGGVEEAAYAAYLTKVKIGIIDPKVIQFNSDDFNNLSKVKPMEDPRLVMLKKRYAERKECK | soluble
MAKTLAQGRKPGSGRKPGKGKTLREGRKPGSGRRRRQDTGGKETDGSQQDQESRLISSRDMEAVDALRELTHSPSSHSAHNSSAAPPPHAAAASTSLPPSLDYTHQSF | soluble
MALAPAAGCLFDDDNSFTYDVTWYCGMDECTRTEEVQRYDRARQDYSTLTITSSVDDTLFTDGIIAVSNEVPREDCRLVHGLNFLGQDIEPARFCYTPDGFELRVTIPGDGDENSTTWLLRTN | not soluble
MALEESLIDLERFCAKAWRVYAKEDPLSHLSFNEFDYLRVIQVFPEGVRITDLADELQVTKPSASNMVVRLEKKGLVKRIACNEDARAKRVLLTEDVAEKMSLEQIVYKDISDQMMLKLNEQEAKQLQSLLNKALGN | not soluble
MALELSRLPELLSRIDGYKGQPVTRLAVMLNLLVFIRSSELRYARWSEIDIDNSMWTIPAEREPLPGVKFSHRGSKMRTPHLVPLSKQVVAILAELQTWAGENGLIFTGAHDPRKPISENTVNKALRVMGYDTTQEVCGHGFRAMACSALIESGLWSRDAVERQMSHQERNGVRAAYIHKAEHLEERRLMLQWWADFLDANREKGISPFEYAKINNPLKLEHHHHHH | soluble
MALFRGMWSVLKALGRTGVEMCAGCGGRIPSSISLVCIPKCFSSMGSYPKKPMSSYLRFSTEQLPKFKAKHPDAKLSELVRKIAALWRELPEAEKKVYEADFKAEWKAYKEAVSKYKEQLTPSQLMGMEKEARQRRLKEKALVKRRELILLGKPKRPRSAYNIYVSESFQEAKDDSAQGKLKLVNEAWKNLSPEEKQAYIQLAKDDRIRTTYEMKSWEEQMAEVGRSDLIRRSVKRSGDISEH | soluble
MALGETKGIILFTKDFKEKDKLVKIFTESYGKLMFFVKGAHRKNNPLLPAILPFTEAVYIGNFREEGLSFLNSSKEVQPFRNIQQDIFINAYGTYILNLVDAAIEDQHYDPNLFQFTHMALSALNEQKDPEIITNIFEIQLLERFGVRPEWHHCVACGETQGKFDYSSKYSGVLCEKHWHLDEQRYHADPRAIHFIRLFSQVSYEKVQNIQVKEETKKSIRETIDMLYDEYVGLHLKSKKFIDQMKTWENTLKIPPRKKEEK | not soluble
MALLREYKEIAYQWGIWKTEESPEELLALLPDPERYEQQLTLFSSPHRKLEWLSVRVLLYQLLGEEKTIEYAPSGKPHLADSSYFISISHTRGYVAVILSPVSEVGIDIEQYGQRVHKVAHKYMRPDELISEYQGEDTWSLLLHWSAKEVMFKCMDTSEVDFREHLRIMPFQVCEHGEFPAEEYRTEHKKKFMIRYLLHPDFVMTWQVTSAYSVNECDIMKKMQ | not soluble
MALSDRLELVSASEIRKLFDIAAGMKDVISLGIGEPDFDTPQHIKEYAKEALDKGLTHYGPNIGLLELREAIAEKLKKQNGIEADPKTEIMVLLGANQAFLMGLSAFLKDGEEVLIPTPAFVSYAPAVILAGGKPVEVPTYEEDEFRLNVDELKKYVTDKTRALIINSPCNPTGAVLTKKDLEEIADFVVEHDLIVISDEVYEHFIYDDARHYSIASLDGMFERTITVNGFSKTFAMTGWRLGFVAAPSWIIERMVKFQMYNATCPVTFIQYAAAKALKDERSWKAVEEMRKEYDRRRKLVWKRLNEMGLPTVKPKGAFYIFPRIRDTGLTSKKFSELMLKEARVAVVPGSAFGKAGEGYVRISYATAYEKLEEAMDRMERVLKERKLV | soluble
MALSKVKLNDTLNKDQLLSSSKYTIQRSTGDSIDTPNYDVQKHINKLCGMLLITEDANHKFTGLIGMLYAMSRLGREDTIKILRDAGYHVKANGVDVTTHRQDINGKEMKFEVLTLASLTTEIQINIEIESRKSYKKMLKEMGEVAPEYRHDSPDCGMIILCIAALVITKLAAGDRSGLTAVIRRANNVLKNEMKRYKGLLPKDIANSFYEVFEKHPHFIDVFVHFGIAQSSTRGGSRVEGIFAGLFMNAYGAGQVMLRWGVLAKSVKNIMLGHASVQAEMEQVVEVYEYAQKLGGEAGFYHILNNPKASLLSLTQFPHFSSVVLGNAAGLGIMGEYRGTPRNQDLYDAAKAYAEQLKENGVINYSVLDLTAEELEAIKHQLNPKDNDVEL | soluble
MAMKVKEVANLVGISVRTLHHYDEIGLLTPDETTESGYRLYSNENLEMLQQILFFKELGFPLKKIKEIIMSPSFDRKEALQLHKKMLLEKRARLDKVIATIDKTIQHTKGEIEMTNKEKFKGFDFSHNPYEEEARERWGDAAVDKANEYAKGMSKEKQEEFNAIYRNLAALRHGAPDSKEAQEAIKVWYDYLQNFSHYSLDAFKGLGQMYVADERFTKNIDKFGEGLAQFMCDAMEVYADRNK | not soluble
MANADLDKQPDSVSSVLKVFGILQALGEEREIGITELSQRVMMSKSTVYRFLQTMKTLGYVAQEGESEKYSLTLKLFELGARALQNVDLIRSADIQMRELSRLTKETIHLGALDEDSIVYIHKIDSMYNLRMYSRIGRRNPLYSTAIGKVLLAWRDRDEVKQILEGVEYKRSTERTITSTEALLPVLDQVREQGYGEDNEEQEEGLRCIAVPVFDRFGVVIAGLSISFPTLRFSEERLQEYVAMLHTAARKISAQMGYHDYPF | soluble
MANLIYLTLNGDNQGLISSGCSSQPSIGNKAQTAHIDQIMIYEFMHGLNRDQNVNHHHLTIKKPIDKASPLLGKAICDNELLTCDFSFYRTNKFGINELFYKIKLTGAKISDIHVSISHIVVDNSVQPEESVSFSYESIIWEHCSAGTSAYSLWEDRLF | not soluble

Reference: the DeepSol protein solubility set
